Source: publication PMC6771245, “CMKLR1-targeting peptide tracers for PET/MR imaging of breast cancer” (Theranostics, 2019)
Several values for one entry are separate records, joined by “and”; a condition that tells them apart may be missing. Equal values may be shown once. *1 amine or outer side, *2 acyl side, *3 side chain or, on linkers, in order; H or OH if unused. Where a SMILES comes first, the peptide text is derived from it. [ ]: non-standard residue; d: D form. The star is where a group is joined. X1 = O=C(O)CN1CCN(CC(=O)O)CCN(CC(=O)NCCCOCCOCCOCCCN*)CCN(CC(=O)O)CC1; DOTA = O=C(O)CN1CCN(CC(=O)O)CCN(CC(=O)*)CCN(CC(=O)O)CC1; NH(CH2)9CO = O=C(CCCCCCCCCN[*:1])[*:2]; Hyp = O=C(O)[C@@H]1C[C@@H](O)CN1; Tic = O=C(O)[C@@H]1Cc2ccccc2CN1; Cha = N[C@@H](CC1CCCCC1)C(=O)O; Cit = NC(=O)NCCC[C@H](N)C(=O)O; Suc = O=C(CCC(=O)[*:2])[*:1]; Octanoyl = CCCCCCCC(=O)*; Ahx = NCCCCCC(=O)O

Columns and labels:
[1] = Determination of LogD7.4 values; type: physicochemical; details: shake-flask octanol/PBS pH 7.4; 3 µL of 1 mM solution, 300 µL per phase, vortex 1 min, centrifuged 5 min 10,000 x g; HPLC peak area octanol/buffer, both phases analysed
Method: Compounds (3 µL of a 1 mM solution) were diluted into 300 µL PBS pH 7.4 or octanol and mixed. 300 µL of the other phase was added, followed by vigorous mixing using a vortex shaker for one minute. The two phases were centrifuged (5 min, 10,000 x g). Following separation, 25 µL aliquots were removed for HPLC analysis. LogD7.4 was calculated by taking the logarithm of the ratio of the high-performance liquid chromatography (HPLC) peak area of each compound in octanol to the corresponding peak area in buffer. Consequently, logD7.4 values were based on analysis of both aqueous and octanol fractions.

huCMKLR1 [2] = target: T1, huCMKLR1 (Homo sapiens, UniProt Q99788); assay: Competitive radioligand binding with ^125I-chemerin-9, membranes of HEK293a cells stably expressing huCMKLR1 and Gα16; details: unlabeled compound; radioligand ^125I-chemerin-9, 5 µg membrane, 1 h 37 °C; three independent experiments, mean ± SD; read-out: competition binding IC50 w/o ^natGa
T1 construct: expressed in transfected cells; host or cells: HEK293a (membrane preparations)
T1 sequence (Q99788 1-373): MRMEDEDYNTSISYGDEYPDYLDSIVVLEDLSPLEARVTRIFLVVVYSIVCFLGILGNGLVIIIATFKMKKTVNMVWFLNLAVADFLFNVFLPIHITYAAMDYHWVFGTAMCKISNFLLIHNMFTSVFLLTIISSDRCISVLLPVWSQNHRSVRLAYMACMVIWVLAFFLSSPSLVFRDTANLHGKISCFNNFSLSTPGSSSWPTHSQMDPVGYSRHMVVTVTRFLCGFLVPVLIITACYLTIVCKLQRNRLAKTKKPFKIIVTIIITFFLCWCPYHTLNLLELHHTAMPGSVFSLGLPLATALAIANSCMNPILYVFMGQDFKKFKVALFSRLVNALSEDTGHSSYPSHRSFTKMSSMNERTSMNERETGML
Method: (§1) For in vitro analysis, HEK293a stably transfected with huCMKLR1 and Gα16 were used. For the in vivo mouse model, the human breast cancer cell line DU4475 with endogenous CMKLR1 expression and the target-negative human lung carcinoma cell line A549 were used. All cell lines were obtained from ATCC/LGC Standards (Wesel, Germany) and were cultured in RPMI1640 medium containing 10% fetal bovine serum (both from Biochrom, Berlin, Germany) and, in case of transfected cells, selection agents G418 (Biochrom, Berlin, Germany) and zeocin (Invitrogen, Carlsbad, USA).
Competitive binding studies were performed with cell membrane preparations. […] […].
(§2) All statistical analyses were performed using GraphPad Prism 5.04. EC50/IC50 values were determined by nonlinear sigmoidal curve fitting with variable slope setting, and normalized response for competitive binding results. Multiple group comparisons were done by a two-way ANOVA and Bonferroni post hoc test. All presented data are based on independent experiments. Normalizations and statistics are further defined in each figure legend.

huCMKLR1 [3] = target: T1, huCMKLR1; assay: Calcium mobilization assay; type: cell-based; details: HEK293a huCMKLR1 Gα16 cells, Fluo-4 AM; three independent experiments, mean ± SD; read-out: Ca^2+ assay EC50
Method: as §1
Optical ViewPlate 96-well microplates (PerkinElmer, Waltham, USA) were coated with poly-D-lysine (10 µg/mL, 50 µL/well) for 30 minutes at 37 °C, washed with PBS and air dried before seeding 40,000 HEK293a huCMKLR1 Gα16 cells per well. The next day, cells were starved with serum-free medium for 30 minutes and incubated with loading medium consisting of serum-free medium with 2.5 mM probenicid (Sigma-Aldrich, St. Louis, USA) and 2 µM Fluo-4 AM (Thermo Fisher Scientific, Waltham, USA). After a loading time of 45 minutes, cells were washed with 100 μL C1 buffer (130 mM NaCl, 5 mM KCl, 10 mM 4-(2-hydroxyethyl)-1-piperazineethanesulfonic acid [HEPES], 2 mM CaCl2, 10 mM glucose) followed by 20 minutes of incubation in the dark. After another washing and incubation cycle, the cell plate was placed into the CellLux Calcium Imaging System (PerkinElmer, Waltham, USA) and the assay was performed automatically according to the following protocol. After a baseline measurement for 30 seconds, the ligands (prepared in C1 buffer with 0.5% BSA in double concentration and pipetted in a U-bottom plate) were added on top of the cells and the fluorescence intensity was recorded for further 60 seconds. Obtained raw data were analyzed using AssayPro (PerkinElmer, Waltham, USA). After spatial uniformity correction, maximum response values (F) were normalized to baseline values (F0) of each well using the following equation:
response = ΔF/F0 = (F - F0)/F0.
as §2

in vivo = details: female, athymic NMRI-Foxn1^nu/Foxn1^nu, mouse, iv, 1 MBq, total radioactivity
Excerpt: (§3) For in vivo experiments, at least 8-week-old female athymic NMRI-Foxn1^nu /Foxn1^nu mice (Janvier Labs, Saint-Berthevin, France) were used. Animal care followed institutional guidelines and all experiments were approved by local animal research authorities. For the generation of tumor xenografts, 5 x 10^6 cells of both DU4475 and A549 cells were inoculated subcutaneously into the right and left shoulder, respectively (1:1 phosphate-buffered saline [PBS]/Matrigel Basement Membrane Matrix High Concentration, Corning, Corning, USA). Part of the animals received SW13 lung cancer cells as a CMKLR1-negative control tumor. For the analysis of biodistribution, only data of […] and A549 xenograft tumors are used. Tumors were allowed to grow for two to four weeks (tumor volume > 100 mm^3) after cell inoculation.
(§4) Radiolabeling of peptide-DOTA conjugates was carried out manually using ^177Lu from ITG Isotope Technologies Garching GmbH (Garching, Germany). A total of 50 µL (stock solution of peptide at 1 µg/µL in 10% DMSO in water) was added to 200 µL of acetate buffer (sodium acetate/acetic acid buffer, 0.4 M, pH 5.0) and 120 µL of gentisic solution prepared by dissolving 50 mg of gentisic acid in 1 mL of acetate buffer. The resulting mixture was then added to 35 µL of ^177Lu (1 GBq in aqueous 0.04 M HCl) and the reaction mixture was heated at 96 °C for 30 minutes followed by cooling for 10 minutes at room temperature. The product was then diluted with 5 mL of saline and used directly for animal experiments.
(§5) Tumor-bearing mice were injected with approximately 10 MBq of ^68Ga-labeled DOTA-peptide or 1 MBq of ^177Lu-labeled DOTA-peptide to the tail vein via a catheter. […] Tumor, blood, stomach, pancreas, small intestine, colon, liver, spleen, kidney, heart, lung, muscle and femur samples were weighed and uptake of radioactivity was measured by a gamma counter. To determine the effect of unlabeled ligand on the tumor uptake, 200 nmol CG34 peptide (100-fold excess) was co-injected.

[4] = system: DU4475/A549 xenograft model; assay: in vivo; details: mouse
Excerpt: as §3, §4, §5

IC50 (huCMKLR1 [2])	EC50 (huCMKLR1 [3]) [nM]	Compound	logD [1]	further results
0.66 nM and ~0.6 nM	–	C[C@@H](NC(=O)[C@H](Cc1ccccc1)NC(=O)[C@H](CCCNC(N)=O)NC(=O)CNC(=O)[C@@H]1C[C@@H](O)CN1C(=O)[C@H](CC1CCCCC1)NC(=O)[C@H](Cc1ccc(O)cc1)NC(=O)CCC(=O)NCCCOCCOCCOCCCNC(=O)CN1CCN(CC(=O)O)CCN(CC(=O)O)CCN(CC(=O)O)CC1)C(=O)N1Cc2ccccc2C[C@H]1C(=O)N[C@@H](CO)C(=O)O [DOTA-TTDS-CG34] ({X1-Suc}-Y[Cha][Hyp]G[Cit]F[dA][Tic]S-OH)	-1.01 ± 0.39	–
0.65 ± 0.15 nM	0.65 ± 0.1	C[C@@H](NC(=O)[C@H](Cc1ccccc1)NC(=O)[C@H](CCCNC(N)=O)NC(=O)CNC(=O)[C@@H]1C[C@@H](O)CN1C(=O)[C@H](CC1CCCCC1)NC(=O)[C@H](Cc1ccc(O)cc1)NC(=O)CCCCCCCCCNC(=O)CN1CCN(CC(=O)O)CCN(CC(=O)O)CCN(CC(=O)O)CC1)C(=O)N1Cc2ccccc2C[C@H]1C(=O)N[C@@H](CO)C(=O)O [DOTA-ADX-CG34] ({DOTA}-[NH(CH2)9CO]Y[Cha][Hyp]G[Cit]F[dA][Tic]S-OH)	1.35 ± 0.31	–
0.1 nM	0.9	CSCC[C@H](NC(=O)CNC(=O)[C@@H]1CCCN1C(=O)[C@H](CC1CCCCC1)NC(=O)[C@@H](N)Cc1ccc(O)cc1)C(=O)N[C@@H](Cc1ccc(O)cc1)C(=O)N[C@@H](C)C(=O)N[C@@H](Cc1ccccc1)C(=O)N[C@H](Cc1ccccc1)C(=O)O [CG36] (H-Y[Cha]PGMYAF[dF]-OH)	–	–
0.13 ± 0.08 nM	1.53	CSCC[C@H](NC(=O)CNC(=O)[C@@H]1CCCN1C(=O)[C@H](CC1CCCCC1)NC(=O)[C@H](Cc1ccc(O)cc1)NC(=O)CCCCCNC(=O)CN1CCN(CC(=O)O)CCN(CC(=O)O)CCN(CC(=O)O)CC1)C(=O)N[C@@H](Cc1ccc(O)cc1)C(=O)N[C@@H](C)C(=O)N[C@@H](Cc1ccccc1)C(=O)N[C@H](Cc1ccccc1)C(=O)O [DOTA-AHX-CG36] ({DOTA-Ahx}-Y[Cha]PGMYAF[dF]-OH)	2.27 ± 0.47	–
0.44 ± 0.16 nM	1.34 ± 0.14	CCCCCCCC(=O)NCCCC[C@H](NC(=O)CN1CCN(CC(=O)O)CCN(CC(=O)O)CCN(CC(=O)O)CC1)C(=O)N[C@@H](Cc1ccc(O)cc1)C(=O)N[C@@H](CC1CCCCC1)C(=O)N1C[C@H](O)C[C@H]1C(=O)NCC(=O)N[C@@H](CCCNC(N)=O)C(=O)N[C@@H](Cc1ccccc1)C(=O)N[C@H](C)C(=O)N1Cc2ccccc2C[C@H]1C(=O)N[C@@H](CO)C(=O)O [DOTA-KCap-CG34] ({DOTA}-K(Octanoyl)Y[Cha][Hyp]G[Cit]F[dA][Tic]S-OH)	1.29 ± 0.68	–
1 nM	0.4	C[C@@H](NC(=O)[C@H](Cc1ccccc1)NC(=O)[C@H](CCCNC(N)=O)NC(=O)CNC(=O)[C@@H]1C[C@@H](O)CN1C(=O)[C@H](CC1CCCCC1)NC(=O)[C@@H](N)Cc1ccc(O)cc1)C(=O)N1Cc2ccccc2C[C@H]1C(=O)N[C@@H](CO)C(=O)O [CG34] (H-Y[Cha][Hyp]G[Cit]F[dA][Tic]S-OH)	–	–
–	–	C[C@@H](NC(=O)[C@H](Cc1ccccc1)NC(=O)[C@H](CCCNC(N)=O)NC(=O)CNC(=O)[C@@H]1C[C@@H](O)CN1C(=O)[C@H](CC1CCCCC1)NC(=O)[C@H](Cc1ccc(O)cc1)NC(=O)CCCCCNC(=O)CN1CCN(CC(=O)O)CCN(CC(=O)O)CCN(CC(=O)O)CC1)C(=O)N1Cc2ccccc2C[C@H]1C(=O)N[C@@H](CO)C(=O)O [[^177Lu]Lu-DOTA-AHX-CG34, metal not drawn] ({DOTA-Ahx}-Y[Cha][Hyp]G[Cit]F[dA][Tic]S-OH)	–	tissue uptake at 1 h (in vivo; A549 tumor uptake): 2.3 %ID/g; tissue uptake at 24 h (in vivo; A549 tumor uptake): 0.4 %ID/g; tissue uptake at 1 h (in vivo; DU4475 tumor uptake): 3.3 %ID/g; tissue uptake at 24 h (in vivo; DU4475 tumor uptake): 2.1 %ID/g; tissue uptake at 1 h (in vivo; kidneys uptake): 4.7 %ID/g; tissue uptake at 24 h (in vivo; kidneys uptake): 1 %ID/g; tissue uptake at 1 h (in vivo; lung uptake): 5.6 %ID/g; tissue uptake at 1 h (in vivo; spleen uptake): 5.8 %ID/g; tissue uptake at 24 h (in vivo; spleen uptake): 1.7 %ID/g; DU4475 uptake after 24 hours as % of the 1 h-value [4]: approx. 64%; decrease of DU4475 tumor signal from one to 24 hours p.i. [4]: approximately 36%; higher uptake in DU4475 than A549 [4]: 1.4 fold
1.05 ± 0.81 nM	0.79 ± 0.28	C[C@@H](NC(=O)[C@H](Cc1ccccc1)NC(=O)[C@H](CCCNC(N)=O)NC(=O)CNC(=O)[C@@H]1C[C@@H](O)CN1C(=O)[C@H](CC1CCCCC1)NC(=O)[C@H](Cc1ccc(O)cc1)NC(=O)CCCCCNC(=O)CN1CCN(CC(=O)O)CCN(CC(=O)O)CCN(CC(=O)O)CC1)C(=O)N1Cc2ccccc2C[C@H]1C(=O)N[C@@H](CO)C(=O)O [DOTA-AHX-CG34] ({DOTA-Ahx}-Y[Cha][Hyp]G[Cit]F[dA][Tic]S-OH)	-0.96 ± 0.2	–
